{
  "source": "patent CN114249819A",
  "key": {"[1]": {"target": "猫泛白细胞减少症病毒1009株 (Feline panleukopenia virus)", "experiment": "cell-based or functional assay"}, "[2]": {"target": "猫泛白细胞减少症病毒1009株 (Feline panleukopenia virus)", "experiment": "indirect immunofluorescence on acetone-fixed F81 cells infected with FPV 1009 strain"}},
  "data": [
    {"binder": "单克隆抗体3C3 (antibody, V domains shown) VH: DVKLVESGGGLVNLGGSLKLSCAASGFTFSSYYMSWVRQTPEKRLELVAAINSNGGGTHSPDTVKGRFTISRDNAKNTLYLQMSSLESEDTALYYCARHADDGSFGLNWYFDVWGAGTTVTVSS VL: DIVMSQSPSSLAVSVGEKVTMSCKSSQSLLYRSNEKNYLAWYQQKPGQSPKLLIYWGSTRESGVPDRFTGSGSGTDFTLTISSVKAEDLAVYYCHQYYRYSYTFGGGTKLEIK", "values": [
      {"measurement": "HI效价 (reciprocal dilution (printed 1:n))", "setting": "[1]", "value": 5120},
      {"measurement": "IFA效价 (reciprocal dilution (printed 1:n))", "setting": "[2]", "value": 6400}
    ]}
  ]
}
